Data reported in patent US12540945B2, “Probe and method for identifying host cell protein impurities” (Regeneron Pharmaceuticals, Inc., priority 2021, dated 2026).

Assay: Hydrolysis of polysorbate 80 by spiked LAL, oleic acid release by LC-MS
Assay type: biochemical
Conditions: 5 ppm LAL, 0.1% PS80, pH 5.5, after 2 days of incubation

B1: LAL: lysosomal acid lipase; recombinant CHO LAL generated in-house, spiked into PS80 samples (protein, UniProt P38571 77-399, looked up)
Lysosomal acid …: GPKPVVFLQHGLLADSSNWVTNLANSSLGFILADAGFDVWMGNSRGNTWSRKHKTLSVSQDEFWAFSYDEMAKYDLPASINFILNKTGQEQVYYVGHSQGTTIGFIAFSQIPELAKRIKMFFALGPVASVAFCTSPMAKLGRLPDHLIKDLFGDKEFLPQSAFLKWLGTHVCTHVILKELCGNLCFLLCGFNERNLNMSRVDVYTTHSPAGTSVQNMLHWSQAVKFQKFQAFDWGSSAKNYFHYNQSYPPTYNVKDMLVPTAVWSGGHDWLADVYDVNILLTQITNLVFHESIPEWEHLDFIWGLDAPWRLYNKIINLMRKYQ
modifications: recombinant, CHO-expressed
notes: lysosomal acid lipase; recombinant CHO LAL generated in-house, spiked into PS80 samples
  oleic acid released (hydrolysis of PS80): 3 µg/mL
